T1: CasR (Rv1776c) (UniProt O33179 1-186)
T1 sequence: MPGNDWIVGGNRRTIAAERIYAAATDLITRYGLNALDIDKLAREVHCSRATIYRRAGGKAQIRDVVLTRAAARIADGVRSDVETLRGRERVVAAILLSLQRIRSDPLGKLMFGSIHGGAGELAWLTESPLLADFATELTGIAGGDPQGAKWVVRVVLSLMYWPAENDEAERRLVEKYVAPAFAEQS


Target: T1, CasR (Rv1776c)
Assay: EMSA; 0-2 uM protein
Settings: protein: recombinant, tags: N-terminal His (pET28a), chain copies: 2

Binder	binding result	binding result (blunt)
csm6p1 (dsDNA) DNA 1: CGATAGTTGGCCCAATTGTCTATCTGGGC DNA 2: GCCCAGATAGACAATTGGGCCAACTATCG	binds	–
casRp1 (dsDNA) DNA 1: AATAAGTAAGGCTTGTGTCTCACTATGA DNA 2: TCATAGTGAGACACAAGCCTTACTTATT	–	binds

From article PMC9953421, “Regulation of CRISPR-Associated Genes by Rv1776c (CasR) in Mycobacterium tuberculosis”
